Measurements: article PMC11602162, “A compact stem-loop DNA aptamer targets a uracil-binding pocket in the SARS-CoV-2 nucleocapsid RNA-binding domain”

Assays:
[1] = target: T1, N-NTD (SARS-CoV-2 (Wuhan-Hu-1), UniProt P0DTC9 46-174); assay: fluorescence anisotropy; 10 mM Tris-HCl pH 7.4, 150 mM NaCl, 1 mM MgCl2; […]; BLI with 0.05% Tween-20; […]
[2] = target: T1, N-NTD; assay: DSF; 10 mM Tris-HCl pH 7.4, 150 mM NaCl, 1 mM MgCl2; […]; BLI with 0.05% Tween-20; […]
[3] = target: T1, N-NTD; assay: competition fluorescence anisotropy; probe N11; 10 mM Tris-HCl pH 7.4, 150 mM NaCl, 1 mM MgCl2; […]; BLI with 0.05% Tween-20; […]
[4] = target: T1, N-NTD; assay: competition fluorescence anisotropy; 10 mM Tris-HCl pH 7.4, 150 mM NaCl, 1 mM MgCl2; […]; BLI with 0.05% Tween-20; […]
[5] = target: N-NTD (SARS-CoV-2 (Wuhan-Hu-1), UniProt P0DTC9 46-174); assay: competition fluorescence anisotropy; probe N11; 10 mM Tris-HCl pH 7.4, 150 mM NaCl, 1 mM MgCl2; FA with 0.1 mg/ml BSA at 25 C; BLI with 0.05% Tween-20; SEC at ambient temperature; conditions: protein: recombinant, tags: N-terminal 6xHis removed by HRV 3C
[6] = target: T2, N protein full-length (SARS-CoV-2 (Wuhan-Hu-1), UniProt P0DTC9 1-419); assay: fluorescence anisotropy; Hill slope 0.91; 10 mM Tris-HCl pH 7.4, 150 mM NaCl, 1 mM MgCl2; FA with 0.1 mg/ml BSA at 25 C; BLI with 0.05% Tween-20; SEC at ambient temperature; conditions: protein: recombinant, tags: 6xHis-thioredoxin removed by HRV 3C, chain copies: 2, label: […], 5' biotin in BLI, hairpin, 2 bp stem
[7] = target: T2, N protein full-length; assay: BLI; immobilized DNA, avidity; 10 mM Tris-HCl pH 7.4, 150 mM NaCl, 1 mM MgCl2; FA with 0.1 mg/ml BSA at 25 C; BLI with 0.05% Tween-20; SEC at ambient temperature; conditions: protein: recombinant, tags: 6xHis-thioredoxin removed by HRV 3C, chain copies: 2, hairpin
[8] = target: T1, N-NTD; assay: fluorescence anisotropy; 1 mM Mg2+; 10 mM Tris-HCl pH 7.4, 150 mM NaCl, 1 mM MgCl2; […]; BLI with 0.05% Tween-20; […]
[9] = target: T2, N protein full-length; assay: fluorescence anisotropy; Hill slope 2.3; 10 mM Tris-HCl pH 7.4, 150 mM NaCl, 1 mM MgCl2; FA with 0.1 mg/ml BSA at 25 C; BLI with 0.05% Tween-20; SEC at ambient temperature; conditions: protein: recombinant; tags: 6xHis-thioredoxin removed by HRV 3C; chain copies: 2; hairpin

Binder: TCAGACATCGGATTGTCTGA (ssDNA) [A58-20_nwb1]
- Kd [1]: 84.9 nM
- binding signal [2]: 4.5 C (Tm shift)

Binder: ATCGGATT (ssDNA) [A58-8]
- binding result [3]: no binding

Binder: TCGGACATCGGATTGTCCGA (ssDNA) [A58-20_nwb2]
- Kd [1]: 87.9 nM
- binding signal [2]: 4.5 C (Tm shift)

B1: A58 (A58-58) (ssDNA)
DNA: GCTGGATGTCACCGGATTGTCGGACATCGGATTGTCTGAGTCATATGACACATCCAGC
- Ki [3]: 9.92 nM

Binder: TCGGACATCGGATTGTCTGA (XNA, 2'-fluoro-dG at position 10 (loop G3); i6-FAMK at position 13 (loop T6)) [A58-20-2'FG3-iT6FAM]
- Kd [1]: 13.9 nM

Binder: UCGGACAUCGGAUUGUCUGA (ssRNA) [A58-20_RNA]
- Ki [4]: 90800 nM
- binding signal [2]: -0.5 C (Tm shift)

Binder: TCGGACATCGGATTGTCTGA (ssDNA, fluorescein-dT (i6-FAMK) at position 13 (loop T6)) [A58-20-iT6FAM]
- Kd [1]: 74 nM

Binder: TCGGACATCGGATTGTCTGA (XNA, 2'-fluoro-dG at position 10 (loop G3)) [A58-20-2'FG3]
- Kd [1]: 74 nM

Binder: UUUUUUUUUUUUUUU (ssRNA) [poly-rU15]
- Ki [5]: 7800 nM

Binder: CATCGGATTG (ssDNA) [A58-10]
- Kd [6]: 24.9 nM
- Kd ([7]; label: […], 5' biotin in BLI, […], 2 bp stem): 3.77 nM

Binder: TCGGACATCGGATTGTCTGA (ssDNA) [A58-20]
- Ki [3]: 50.5 nM
- Kd [8]: 101 nM
- Kd [7]: 0.0101 nM
- Kd [9]: 78.2 nM

Binder: TCGGACATTTTTTTGTCTGA (ssDNA) [A58-20 TTTTTT]
- binding signal [2]: 0.5 C (Tm shift)

Binder: UCAUGUUAUGGUUGA (structured_RNA) [SL9 RNA]
- Ki ([5]; stem-loop): 15400 nM

Binder: TTTTTTTTTTTTTTT (ssDNA) [poly-dT15]
- Ki [5]: 4120 nM

Binder: GUCCCUCAUGUGGGC (structured_RNA) [SL10 RNA]
- Ki ([5]; stem-loop): 38700 nM
